Measurements taken from paper PMC10154332, “Mirror proteorhodopsins” (Communications Chemistry, 2023).
One block for each molecule: values may come before it.

Legend:
[1] = target: T1, SpaR (Sphingomonas paucimobilis rhodopsin) (Sphingomonas paucimobilis, UniProt A0A411LJN5); experiment: X-ray crystallography, in meso crystals, […] A; type: binding; conditions: covalent Schiff base to K211; crystals at pH 5.2
T1 construct: gene HKX06_19670; E. coli C41(DE3) codon-optimised gene in pET32b (NdeI/XhoI), C-terminal His tag, DDM-solubilised, Ni-NTA and SEC; trimer
T1 sequence (A0A411LJN5 1-237): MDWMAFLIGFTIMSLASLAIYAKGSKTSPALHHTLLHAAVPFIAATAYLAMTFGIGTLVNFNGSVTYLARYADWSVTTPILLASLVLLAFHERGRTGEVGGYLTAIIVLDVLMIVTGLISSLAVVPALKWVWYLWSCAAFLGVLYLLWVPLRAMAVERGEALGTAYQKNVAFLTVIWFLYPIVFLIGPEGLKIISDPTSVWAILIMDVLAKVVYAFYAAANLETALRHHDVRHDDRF

[2] = target: Sphingomonas paucimobilis rhodopsin (SpaR) (Sphingomonas paucimobilis); experiment: crystal structure; in meso (monoolein) crystals, 0.78 M NaH2PO4/K2HPO4 pH 5.2, 22 °C; space group C2; 2.8 Å
[3] = target: Sphingomonas paucimobilis rhodopsin (SpaR) (Sphingomonas paucimobilis); experiment: SEC; DDM-solubilized SpaR at five pH values (4.4, 5.4, 6.4, 7.4, 8.4); at pH 4.4 only a single trimer peak, further peaks of higher molecular weight with increasing pH
[4] = target: Sphingomonas paucimobilis rhodopsin (SpaR) (Sphingomonas paucimobilis); experiment: SAXS; solubilized SpaR ~5 mg/ml in 100 mM NaCl, 0.5 mM EDTA, 0.01% NaN3, 20 mM TRIS(HCl) pH 7.2, 0.05% DDM; profile 0.04-0.26 1/A fitted with MEMPROT (detergent corona), trimer against monomer model
[5] = target: Asp97 (UniProt position 97, …); conditions: cited from earlier work
Asp73 (position 73, …) = experiment: UV-vis; conditions: 150 mM NaCl, 50 mM MES, Dark (ground) state, DDM-solubilised

Molecule: CC1=C(/C=C/C(C)=C/C=C/C(C)=C/C=O)C(C)(C)CCC1 [retinal]
X-ray crystallography, in meso crystals, 2.8 A [1]: the retinal co-factor is covalently bound to the K211 residue of the helix G

stoichiometry N [2]: 3
stoichiometry N [3]: 3
stoichiometry N [4]: 3
Molecule: Sphingomonas paucimobilis rhodopsin (SpaR) (natural protein)

B1: Green proteorhodopsin (PR) (uncultured marine gamma proteobacterium (printed as 'Gamma-proteobacterium')) (protein)
chain: MKLLLILGSVIALPTFAAGGGDLDASDYTGVSFWLVTAALLASTVFFFVERDRVSAKWKTSLTVSGLVTGIAFWHYMYMRGVWIETGDSPTVFRYIDWLLTVPLLICEFYLILAAATNVAGSLFKKLLVGSLVMLVFGYMGEAGIMAAWPAFIIGCLAWVYMIYELWAGEGKSACNTASPAVQSAYNTMMYIIIFGWAIYPVGYFTGYLMGDGGSALNLNLIYNLADFVNKILFGLIIWNVAVKESSNA
pKa [5]: 7.68

B2: SpaR (Sphingomonas paucimobilis rhodopsin, mirror proteorhodopsin) (Sphingomonas paucimobilis) (protein)
chain: T1 sequence (A0A411LJN5 1-237)
pKa (Asp73 (position 73, …); 5 mM ZnCl2, in the presence of 5 mM Zn2+): 0.98±0.01
pKa (Asp73 (position 73, …); no Zn2+): 1.03±0.01
